Here are results for 6 molecules from publication PMC4591219 (Cell reports, 2015).

Residue numbers refer to the chain shown, from its start.

Data set [1] has as its target T1, full-length Poz1 (in the purified Poz1-Tpz1 complex) (S. pombe, UniProt O13852 1-249).
T1 sequence: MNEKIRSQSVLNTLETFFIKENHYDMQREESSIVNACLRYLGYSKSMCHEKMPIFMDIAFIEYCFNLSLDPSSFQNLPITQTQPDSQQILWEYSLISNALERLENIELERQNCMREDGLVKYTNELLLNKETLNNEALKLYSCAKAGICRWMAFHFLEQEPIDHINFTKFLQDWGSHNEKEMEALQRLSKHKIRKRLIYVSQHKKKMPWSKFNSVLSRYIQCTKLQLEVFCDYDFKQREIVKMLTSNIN
Description: cross-linking.

Another data set concerns the target T2, Poz1-W174R (recombinant) (S. pombe, UniProt O13852 1-249, W174R).
T2 sequence: T1 sequence with W174R
As to the kind of experiment: pull-down.

For a further data set, the target named is T3, Poz1-W209A (recombinant) (S. pombe, UniProt O13852 1-249, W209A).
T3 sequence: T1 sequence with W209A
Description: pull-down.

The target of data set [2] is T4, Poz1 (wild type, recombinant, GST pull-down) (S. pombe, UniProt O13852 1-249).
T4 sequence: T1 sequence
Description: pull-down.

Another data set deals with T5, Pot1-I453R (Schizosaccharomyces pombe, UniProt O13988 1-555, I453R).
T5 sequence: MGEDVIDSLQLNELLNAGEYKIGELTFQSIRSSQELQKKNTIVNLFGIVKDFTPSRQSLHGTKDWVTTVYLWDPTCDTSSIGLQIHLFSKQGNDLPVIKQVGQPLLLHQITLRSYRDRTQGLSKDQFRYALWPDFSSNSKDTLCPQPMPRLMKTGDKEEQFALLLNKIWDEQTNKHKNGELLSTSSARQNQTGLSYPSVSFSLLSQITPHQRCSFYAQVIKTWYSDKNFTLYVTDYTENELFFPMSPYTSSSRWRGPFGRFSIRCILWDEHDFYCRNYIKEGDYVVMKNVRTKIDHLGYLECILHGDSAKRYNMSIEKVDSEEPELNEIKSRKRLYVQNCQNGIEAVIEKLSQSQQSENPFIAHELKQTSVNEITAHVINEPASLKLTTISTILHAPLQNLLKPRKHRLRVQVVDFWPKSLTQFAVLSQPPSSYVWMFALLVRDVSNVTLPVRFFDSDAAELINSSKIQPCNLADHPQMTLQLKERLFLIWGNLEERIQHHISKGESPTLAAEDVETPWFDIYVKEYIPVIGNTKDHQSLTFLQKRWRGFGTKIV
As to the kind of experiment: EMSA.

A further data set addresses T6, Pot1-F520A (Schizosaccharomyces pombe, UniProt O13988 1-555, F520A).
T6 sequence: T5 sequence with R453I, F520A
Description: EMSA. A general note: Mobility shift assays separate free from complexed probe on a gel.

The target of data set [3] is T7, full-length Pot1 (in the purified Pot1–Tpz1-NTD complex) (S. pombe, UniProt O13988 1-555).
T7 sequence: T5 sequence with R453I
As to the kind of experiment: cross-linking.

In data set [4] the target is T8, Pot1 (wild type, recombinant, GST pull-down) (S. pombe, UniProt O13988 1-555).
T8 sequence: T5 sequence with R453I
As to the kind of experiment: pull-down.

For a further data set, the target named is T9, Ccq1 (130–439) (S. pombe, UniProt Q10432 130-439).
T9 sequence: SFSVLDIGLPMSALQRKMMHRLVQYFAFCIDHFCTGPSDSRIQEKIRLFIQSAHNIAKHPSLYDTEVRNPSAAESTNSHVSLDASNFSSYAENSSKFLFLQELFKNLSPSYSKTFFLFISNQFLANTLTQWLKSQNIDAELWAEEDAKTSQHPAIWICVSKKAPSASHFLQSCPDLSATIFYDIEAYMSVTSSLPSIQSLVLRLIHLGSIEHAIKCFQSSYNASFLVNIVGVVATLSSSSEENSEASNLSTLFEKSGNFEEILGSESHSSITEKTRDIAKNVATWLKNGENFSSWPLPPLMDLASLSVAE
Description: cross-linking.

B1: Tpz1 (406–508) (in the purified Poz1-Tpz1 complex) (domain or fragment)
chain: SSVISCTPPAINFTSDICNEQIELEYKRKPIPDYDFMKGLETTLQELYVEHQSKKRRLELFQLTNNHQKNSEACEMCRLGLPHGSFFELLRDWKKIEEFRNKS
For the molecule B1, the binding result in [1] is on record as “binds”.

B2: GST-Tpz1-CTD (406–508) (domain or fragment)
chain: B1 chain
B2: the binding result (with Poz1-W174R (recombinant); with Poz1-W209A (recombinant); in data set [2]) was “binds” each time.
For the molecule GTTACGGTTACAGGTTACG (ssDNA) [telomeric ssDNA 19-mer], the binding result with Pot1-I453R and with Pot1-F520A was “binds” in each case.

B3: Tpz1-NTD (1–234) (in the purified Pot1–Tpz1-NTD complex) (domain or fragment)
chain: MSNCLKHPWLENGLLNLIKNADVLPIRVFKCQPLQIFEYIRYEHPIRCKLSDTEFYIEAEFSSQSISDLNNFTEKRITSLRGGIVTLGNFLIHLIPSQSGIIPWIQVESFNFQGCEGAVFGNPKAITTSALFNALLQSPYLAALANEFNRSIKEGSSYQEASLSQQEKPNDNTSNSRDIKNNIQFHWKNMTSLSIEECIIPKGQQLILEKESEENTTHGIYLEERKMAQGLHNS
Turning to B3, the binding result in data set [3] is recorded as “binds”.

B4: GST-Tpz1-NTD (2–234) (domain or fragment)
chain: SNCLKHPWLENGLLNLIKNADVLPIRVFKCQPLQIFEYIRYEHPIRCKLSDTEFYIEAEFSSQSISDLNNFTEKRITSLRGGIVTLGNFLIHLIPSQSGIIPWIQVESFNFQGCEGAVFGNPKAITTSALFNALLQSPYLAALANEFNRSIKEGSSYQEASLSQQEKPNDNTSNSRDIKNNIQFHWKNMTSLSIEECIIPKGQQLILEKESEENTTHGIYLEERKMAQGLHNS
As for B4, in data set [4], the binding result is listed as “binds”.
Regarding AINFTSDICNEQIELEYKRKPIPDYDFMKGLETTLQELYVEHQS (domain or fragment) [Tpz1 (415–458)], in the data set with Ccq1 (130–439), the binding result was “binds”.
